Experiments:
[1] = system: SK-RC-52.hFAP and SK-RC-52.wt xenografts; assay: Ex vivo targeting experiment, SK-RC-52.hFAP and SK-RC-52.wt xenografts; assay type: in vivo, BALB/C nu/nu mice; conditions: 40 nmol intravenous, ex vivo organ images 1 h
Description: (§1) SK-RC-52.hFAP, HT-1080.hFAP, SK-RC-52.wt cells were grown to 80% confluence and detached with Trypsin-EDTA 0.05%. Cells were re-suspended in HBSS medium to a final concentration of 5×10^7 cells/mL. […] SK-MEL-187 cells were grown to 80% confluence and detached with Trypsin-EDTA 0.05%. Cells were re-suspended in a 1:1 mixture of HBSS:Matrigel to a final concentration of 10×10^7 cells/mL.
(§2) Mice bearing subcutaneous SK-RC-52.hFAP or HT-1080.hFAP tumors on the right flank and SK-RC-52.wt tumor on the left flank were injected intravenously with conjugate 30 (40 nmol in sterile PBS, pH 7.4). […] Cryostat sections ([…]) were cut and nuclei were stained with Fluorescence Mounting Medium (Dako Omnis, Agilent). Images were obtained using an Axioskop2 mot plus microscope (Zeiss) and analyzed by ImageJ 1.53 software.

[2] = system: HT-1080.hFAP and SK-RC-52.wt xenografts; assay: Ex vivo targeting experiment, HT-1080.hFAP and SK-RC-52.wt xenografts; assay type: in vivo, BALB/C nu/nu mice; conditions: 40 nmol intravenous, ex vivo organ images 1 h
Description: as §1, §2

SK-MEL-187 tumour = conditions: 250 nmol/kg daily for 7 consecutive days
Description: SK-MEL-187 xenografted tumours were implanted into female athymic BALB/C nu/nu mice (6-8 weeks of age) as described above, and allowed to grow to an average volume of 0.1 mL. Mice were randomly assigned into therapy groups of 3 animals. […] Tumours were measured with an electronic caliper and animals were weighted daily. Tumour volume (mm^3) was calculated with the formula (long side, mm)×(short side, mm)×(short side, mm)×0.5 (FIG. 8). Prism 6 software (GraphPad Software) was used for data analysis (regular two-way ANOVA followed by Bonferroni test).

[3] = system: SK-RC-52.hFAP and SK-RC-52.wt tumours; conditions: 250 nmol/kg, 6 hours after intravenous administration
Description: (§3) SK-RC-52.hFAP (right flank) and SK-RC-52.wt (left flank) xenografted tumors were implanted into female athymic BALB/C nu/nu mice (6-8 weeks of age) as described above, and allowed to grow to an average volume of 0.1 mL.
(§4) Frozen organs were cutted with a scalpel (50 mg), and suspended in 600 μL of 95:5 Acetonitrile/water (0.1% TFA). A solution of D8-MMAE in 3:97 Acetonitrile/water (0.1% FA; internal standard, 50 μL, 50 nM) was added. The samples were mechanically lysed with a Tissue Lyser II (Qiagen, 30 Hz shaking, 15 minutes). Plasma samples (50 μL) were added with a solution of D8-MMAE in 3:97 Acetonitrile/water (0.1% FA; internal standard, 50 μL, 50 nM) and proteins were precipitated by addition of 600 μL of 95:5 Acetonitrile/water (0.1% TFA). Proteins from both organs and plasma samples were pelleted by centrifugation and supernatants were dried with a vacuum centrifuge. Solid remanences were resuspended in 1 mL of 3:97 Acetonitrile/water (0.1% TFA) and solutions were cleaned up through a first purification step on HBL Oasis columns and a second purification on C18 Macro Spin Columns. Purified dried eluates were resuspended in 150 μL of 3:97 Acetonitrile/water (0.1% FA) and analyzed by MS. All samples were analysed by liquid chromatography-tandem mass spectrometry (LC-MS/MS) using a Q Exactive Mass Spectrometer fitted with an EASY-nLC 1000 (both Thermo Fisher Scientific). Analytes were resolved with an Acclaim PepMap RSLC C18, 50 m×150 mm, 2 m analytical column (Thermo Fisher Scientific) at a flow rate of 0.3 It/min by running a linear gradient from 3% to 50% ACN over 60 min. All buffers contained 0.1% formic acid. MS spectra were recorded in SIM scan mode with a resolution of 70000 and a maximum injection time of 100 ms. MS/MS were recorded at a resolution of 35000 and a maximum injection time of 250 ms.
(§5) Raw files were then analysed with the Skyline software. MS1 areas of the two ions were used for quantification.

in vivo = conditions: female, BALB/C nu/nu, mouse, iv, 250 nmol/kg
Description: as §3, §4, §5

SK-RC-52.hFAP tumour = assay: Therapy experiment in SK-RC-52.hFAP tumour bearing mice; conditions: 500 nmol/kg intravenously from day 8 for 6 consecutive days
Description: SK-RC-52.hFAP xenografted tumors were implanted into female athymic BALB/C nu/nu mice (6-8 weeks of age) as described above, and allowed to grow to an average volume of 0.1 mL.
Mice were randomly assigned into 8 therapy groups of 4 animals each (5 single-agent groups, 2 combination groups and vehicle group). […] L19-IL2 was diluted at 330 μg/mL in the appropriate formulation buffer and intravenously administered at the dose of 2.5 mg/kg.
Mice in single-agent groups received daily injections of ESV6-ValCit-MMAE, QCOOH-ValCit-MMAE or L 19-IL2.
Mice in combination groups received daily injections of ESV6-ValCit-MMAE on day 8,10 and 12 after tumor implantation, and of L 19-IL2 on day 9,11 and 13 after tumor implantation.
Tumors were measured with an electronic caliper and animals were weighted daily. Tumor volume (mm^3) was calculated with the formula (long side, mm)×(short side, mm)×(short side, mm)×0.5.
Prism 6 software (GraphPad Software) was used for data analysis (regular two-way ANOVA followed by Bonferroni test).

| SMILES | targeting performance, SK-RC-52.hFAP and SK-RC-52.wt xenografts [1] | targeting performance, HT-1080.hFAP and SK-RC-52.wt xenografts [2] | anti-tumour effect (mean tumour volume) (SK-MEL-187 tumour) | tolerability (changes in body weight), acute toxicity (SK-MEL-187 tumour) | accumulation in FAP-negative SK-RC-52 wild type tumours [3] | uptake at the tumour site (FAP-positive SK-RC-52) [3] [% ID/g] | uptake in healthy organs [3] | tissue uptake at 6 h (in vivo; SK-RC-52.hFAP tumour (FAP-positive)) [%ID/g] | tissue uptake at 6 h (in vivo; healthy organs) [%ID/g] | anti-tumour effect (mean tumour volume) (SK-RC-52.hFAP tumour) |
| --- | --- | --- | --- | --- | --- | --- | --- | --- | --- | --- |
| N#C[C@@H]1CC(F)(F)CN1C(=O)CNC(=O)c1ccnc2c(NC(=O)CCC(=O)N[C@@H](CC(=O)O)C(=O)N[C@@H](CCCCN)C(=O)N[C@@H](CC(=O)O)C(=O)N[C@@H](CSC3CC(=O)N(CCCCCNC(=O)c4ccc5c(c4)C(=O)OC54c5ccc(N)c(S(=O)(=O)O)c5Oc5c4ccc(N)c5S(=O)(=O)O)C3=O)C(=O)O)cccc12 (stereo in doubt) [conjugate 30, ESV6-Alexa Fluor 488] | localises rapidly, homogeneously and selectively in vivo at the tumour which presents FAP expression 1 hour after the intravenous injection, with an excellent tumour-to-organs selectivity | rapidly, homogeneously and selectively localizes in vivo at the tumour which presents FAP expression 1 hour after the intravenous injection, with an excellent tumour-to-organs selectivity | – | – | – | – | – | – | – | – |
| CC[C@H](C)[C@@H]([C@@H](CC(=O)N1CCC[C@H]1[C@H](OC)[C@@H](C)C(=O)N[C@H](C)[C@@H](O)c1ccccc1)OC)N(C)C(=O)[C@@H](NC(=O)[C@H](C(C)C)N(C)C(=O)OCc1ccc(NC(=O)[C@H](CCCNC(N)=O)NC(=O)[C@@H](NC(=O)CCCCCN2C(=O)CC(SC[C@H](NC(=O)[C@H](CC(=O)O)NC(=O)[C@H](CCCCN)NC(=O)[C@H](CC(=O)O)NC(=O)CCC(=O)Nc3cccc4c(C(=O)NCC(=O)N5CC(F)(F)C[C@H]5C#N)ccnc34)C(=O)O)C2=O)C(C)C)cc1)C(C)C (stereo partly shown) [ESV6-ValCit-MMAE] | – | – | more potent anti-tumour effect as compared with HABERKORN-ValCit-MMAE | lower acute toxicity as compared to HABERKORN-ValCit-MMAE | does not accumulate in FAP-negative SK-RC-52 wild type tumours | 18 | lower than 1 % ID/g | 18 | < 1 | more potent anti-tumour effect as compared with QCOOH-ValCit-MMAE |
